From PMC6883375, “Enolase From Aspergillus fumigatus Is a Moonlighting Protein That Binds the Human Plasma Complement Proteins Factor H, FHL-1, C4BP, and Plasminogen” (Frontiers in Immunology, 2019)

Columns and labels:
[1] = target: Aspergillus fumigatus enolase (AfEno1), recombinant His-tagged (Aspergillus fumigatus) (UniProt Q96X30); assay: BLI; His-tagged AfEno1 on Ni-NTA biosensors; factor H, C4BP or plasminogen as analyte; DPBS with 0.001% gelatin, RT; association 250 s, dissociation 250 s; 1:1 model; heat inactivated regulators as non-binding control
[2] = target: T1, human C4b binding protein (C4BP) (human, UniProt P04003 49-597; P20851 18-252); assay: as above; settings: both partners purified
T1 construct: also called NHS-derived C4BP; plasma-derived C4BP; source: bought: CompTech (purified human C4BP); also in normal human serum (NHS); copies: 7 + 1
T1 sequence 1: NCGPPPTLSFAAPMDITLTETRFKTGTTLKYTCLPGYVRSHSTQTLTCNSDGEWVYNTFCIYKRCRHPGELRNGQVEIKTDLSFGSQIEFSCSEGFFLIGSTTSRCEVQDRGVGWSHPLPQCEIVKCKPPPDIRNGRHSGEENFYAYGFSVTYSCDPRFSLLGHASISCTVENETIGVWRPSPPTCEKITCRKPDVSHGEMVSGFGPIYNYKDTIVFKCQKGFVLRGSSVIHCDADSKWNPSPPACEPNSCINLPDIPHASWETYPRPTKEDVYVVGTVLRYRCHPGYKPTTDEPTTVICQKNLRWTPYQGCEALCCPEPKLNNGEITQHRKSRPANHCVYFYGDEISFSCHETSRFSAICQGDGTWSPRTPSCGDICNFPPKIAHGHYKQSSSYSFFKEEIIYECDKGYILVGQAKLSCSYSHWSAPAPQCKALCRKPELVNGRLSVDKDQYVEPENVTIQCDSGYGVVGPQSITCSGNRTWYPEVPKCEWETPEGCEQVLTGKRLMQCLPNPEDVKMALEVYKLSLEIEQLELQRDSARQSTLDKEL
T1 sequence 2: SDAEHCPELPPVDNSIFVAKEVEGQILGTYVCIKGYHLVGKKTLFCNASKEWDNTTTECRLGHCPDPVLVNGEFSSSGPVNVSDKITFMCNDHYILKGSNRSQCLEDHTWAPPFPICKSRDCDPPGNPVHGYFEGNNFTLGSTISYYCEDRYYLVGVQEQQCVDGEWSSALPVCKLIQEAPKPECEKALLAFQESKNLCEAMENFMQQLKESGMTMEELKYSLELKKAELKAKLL

human factor H [3] = target: T2, human factor H (human, UniProt P08603 19-1231); assay: as above; settings: both partners purified
T2 construct: complement factor H, human, 150-kDa plasma protein of 20 short conserved repeats (SCRs); also called NHS-derived factor H; serum-derived Factor H; source: bought: CompTech (purified human factor H); also in normal human serum (NHS)

human factor H [4] = target: T2, human factor H; assay: not stated; data not shown; method and format not told

T2 sequence (P08603 19-1231): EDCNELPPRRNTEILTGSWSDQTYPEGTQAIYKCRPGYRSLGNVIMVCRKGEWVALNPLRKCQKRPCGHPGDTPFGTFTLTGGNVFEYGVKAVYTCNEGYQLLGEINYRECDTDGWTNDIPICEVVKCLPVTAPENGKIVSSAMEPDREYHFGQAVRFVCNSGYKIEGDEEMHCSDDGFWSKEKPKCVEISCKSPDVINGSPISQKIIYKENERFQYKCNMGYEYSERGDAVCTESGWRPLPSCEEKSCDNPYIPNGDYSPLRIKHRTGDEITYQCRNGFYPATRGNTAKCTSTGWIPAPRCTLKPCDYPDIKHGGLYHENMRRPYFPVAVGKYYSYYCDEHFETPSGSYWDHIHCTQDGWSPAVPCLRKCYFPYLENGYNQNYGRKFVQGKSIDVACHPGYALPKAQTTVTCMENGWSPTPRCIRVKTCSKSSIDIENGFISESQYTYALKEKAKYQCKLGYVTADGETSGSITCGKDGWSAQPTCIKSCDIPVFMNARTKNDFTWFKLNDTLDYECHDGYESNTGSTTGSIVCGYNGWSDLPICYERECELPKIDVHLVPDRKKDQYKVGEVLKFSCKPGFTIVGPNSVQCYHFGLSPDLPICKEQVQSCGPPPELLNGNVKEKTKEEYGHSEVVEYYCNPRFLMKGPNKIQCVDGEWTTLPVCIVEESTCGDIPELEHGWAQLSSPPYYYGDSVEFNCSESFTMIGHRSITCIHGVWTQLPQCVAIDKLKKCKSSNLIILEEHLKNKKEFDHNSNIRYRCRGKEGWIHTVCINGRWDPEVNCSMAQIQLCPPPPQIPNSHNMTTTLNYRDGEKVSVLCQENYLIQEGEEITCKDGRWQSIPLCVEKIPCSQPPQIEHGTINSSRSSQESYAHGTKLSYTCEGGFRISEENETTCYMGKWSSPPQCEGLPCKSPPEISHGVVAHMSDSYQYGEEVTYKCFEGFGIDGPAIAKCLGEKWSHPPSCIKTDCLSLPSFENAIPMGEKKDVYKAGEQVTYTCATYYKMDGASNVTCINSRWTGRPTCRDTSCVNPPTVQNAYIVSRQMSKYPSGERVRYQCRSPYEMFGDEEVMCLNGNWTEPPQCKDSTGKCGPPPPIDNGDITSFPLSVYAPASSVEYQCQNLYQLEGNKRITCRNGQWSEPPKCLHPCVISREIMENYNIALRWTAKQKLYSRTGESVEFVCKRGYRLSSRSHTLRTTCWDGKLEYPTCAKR

Q: human plasminogen (natural protein) was tested. Which Kd [1] did it give?
A: Its Kd is 530 nM.

B1: Aspergillus fumigatus enolase (AfEno1), recombinant His-tagged (natural protein)
chain: MPISKIHARSVYDSRGNPTVEVDVVTETGLHRAIVPSGASTGQHEAHELRDGDKTQWGGKGVLKAVKNVNETIGPALIKENIDVKDQSKVDEFLNKLDGTANKSNLGANAILGVSLAVAKAGAAEKGVPLYAHISDLAGTKKPYVLPVPFQNVLNGGSHAGGRLAFQEFMIVPDSAPSFSEALRQGAEVYQKLKALAKKKYGQSAGNVGDEGGVAPDIQTAEEALDLITEAIEQAGYTGKIKIAMDVASSEFYKADVKKYDLDFKNPESDPSKWLTYEQLADLYKSLAAKYPIVSIEDPFAEDDWEAWSYFYKTSDFQIVGDDLTVTNPGRIKKAIELKSCNALLLKVNQIGTLTESIQAAKDSYADNWGVMVSHRSGETEDVTIADIAVGLRSGQIKTGAPCRSERLAKLNQILRIEEELGENAVYAGSKFRTAVNL
notes: enolase (AfEno1, allergen Aspf22) of Aspergillus fumigatus; the gene was cloned with six His residues added at the N-terminus; Vector printed as 'pET 4.1 a'; also called Aspf22; recombinant AfEno1; source: E. coli BL21 (DE3), purified (Ni-NTA, HisTrap); not shown: His6, N-terminal, kept
Q: For B1, which Kd [2] is on record?
A: Its Kd is 131 nM.

Q: And the Kd (human factor H [3])?
A: The Kd was 528 nM.

B2: Candida albicans Pra1 (pH-regulated antigen 1) (natural protein)
chain: APVTVTRFVDASPTGYDWRADWVKGFPIDSSCNATQYNQLSTGLQEAQLLAEHARDHTLRFGSKSPFFRKYFGNETASAEVVGHFDNVVGADKSSILFLCDDLDDKCKNDGWAGYWRGSNHSDQTIICDLSFVTRRYLTQLCSSGYTVSKSKTNIFWAGDLLHRFWHLKSIGQLVIEHYADTYEEVLELAQENSTYAVRNSNSLIYYALDVYAYDVTIPGEGCNGDGTSYKKSDFSSFEDSDSGSDSGASSTASSSHQHTDSNPSATTDANSHCHTHADGEVHC
notes: pH-regulated antigen 1 (Pra1) of Candida albicans; the construct is not described; also called C. albicans Pra1
Q: How did the Kd (human factor H [4]) turn out when B2 was run?
A: Its Kd is 1.87 nM.
